T1: human mitochondrial superoxide dismutase (SOD2), His-tag recombinant protein (human, UniProt P04179 25-222)
T1 construct: Trp residues are printed as W78, W123, W125, W161, W181, W186; also called Mn-SOD; (SOD2)4; source: bought: Technical Novusbio (His-tag recombinant protein)
T1 sequence: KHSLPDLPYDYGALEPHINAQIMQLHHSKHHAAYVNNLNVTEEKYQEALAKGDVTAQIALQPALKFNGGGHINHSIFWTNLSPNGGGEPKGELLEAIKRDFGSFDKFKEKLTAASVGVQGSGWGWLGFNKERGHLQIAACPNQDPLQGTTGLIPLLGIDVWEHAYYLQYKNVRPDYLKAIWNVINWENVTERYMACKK


Key:
[1] = molecular target: T1, human mitochondrial superoxide …; assay: tryptophan fluorescence quenching (mixture against the sum of the single spectra); both in solution; FXN 1.4 uM, SOD2 1.9 uM (FXN:(SOD2)4 1:0.34), 288 K, mix of 20 mM TRIS-HCl pH 8 and 25 mM HEPES pH 7.0, 50 mM KCl, under nitrogen; conditions: both partners purified
[2] = molecular target: T1, human mitochondrial superoxide …; assay: SDSL-EPR (EPR spectra of spin-labelled protein, fitted rotational correlation time); both in solution; 10 uM spin-labelled FXN mutant without or with 40 uM SOD2 (FXN:(SOD2)4 1:1; also 1:0.5), room temperature, 18 uL SOD buffer (20 mM Tris HCl pH 8, 20% v/v glycerol) or SOD2 stock with 2 uL FXN stock, under nitrogen flow; conditions: both partners purified

| Binder | decrease in fluorescence quenching relative to the sum of the individual spectra [1] [%] | ΔτC (τC^+SOD − τC^−SOD) [2] [ns] |
| --- | --- | --- |
| human wild-type mature frataxin, FXN(90-210) (domain or fragment, UniProt Q16595 90-210, looked up, human frataxin, residues 90-210 of the 210 amino acid precursor, from plasmid pET-9b/FXN(90-210); also called WT FXN; source: E. coli BL21 (DE3), purified (DEAE Sepharose ion exchange, SEC on Superdex 200)) LDETTYERLAEETLDSLAEFFEDLADKPYTFEDYDVSFGSGVLTVKLGGDLGTYVINKQTPNKQIWLSSPSSGPKRYDWTGKNWVYSHDGVSLHELLAAELTKALKTKLDLSSLAYSGKDA | 17 | – |
| human FXN(90-210) H183C, spin-labelled with M-TETPO (domain or fragment, UniProt Q16595 90-210, looked up, M-TETPO nitroxide spin label on cysteine 183, human frataxin, residues 90-210, native residue mutated to cysteine for spin labelling; source: E. coli BL21 (DE3), purified (DEAE Sepharose ion exchange, SEC), labelled with M-TETPO) LDETTYERLAEETLDSLAEFFEDLADKPYTFEDYDVSFGSGVLTVKLGGDLGTYVINKQTPNKQIWLSSPSSGPKRYDWTGKNWVYSHDGVSLCELLAAELTKALKTKLDLSSLAYSGKDA | – | 0.56 |
| human FXN(90-210) A193C, spin-labelled with M-TETPO (domain or fragment, UniProt Q16595 90-210, looked up, M-TETPO nitroxide spin label on cysteine 193, human frataxin, residues 90-210, native residue mutated to cysteine for spin labelling; source: E. coli BL21 (DE3), purified (DEAE Sepharose ion exchange, SEC), labelled with M-TETPO) LDETTYERLAEETLDSLAEFFEDLADKPYTFEDYDVSFGSGVLTVKLGGDLGTYVINKQTPNKQIWLSSPSSGPKRYDWTGKNWVYSHDGVSLHELLAAELTKCLKTKLDLSSLAYSGKDA | – | 0.41 |
| human FXN(90-210) T133C, spin-labelled with M-TETPO (domain or fragment, UniProt Q16595 90-210, looked up, M-TETPO nitroxide spin label on cysteine 133, human frataxin, residues 90-210, native residue mutated to cysteine for spin labelling; source: E. coli BL21 (DE3), purified (DEAE Sepharose ion exchange, SEC), labelled with M-TETPO) LDETTYERLAEETLDSLAEFFEDLADKPYTFEDYDVSFGSGVLCVKLGGDLGTYVINKQTPNKQIWLSSPSSGPKRYDWTGKNWVYSHDGVSLHELLAAELTKALKTKLDLSSLAYSGKDA | – | 0.4 |
| human FXN(90-210) A114C, spin-labelled with M-TETPO (domain or fragment, UniProt Q16595 90-210, looked up, M-TETPO nitroxide spin label on cysteine 114, human frataxin, residues 90-210, native residue mutated to cysteine for spin labelling; source: E. coli BL21 (DE3), purified (DEAE Sepharose ion exchange, SEC), labelled with M-TETPO) LDETTYERLAEETLDSLAEFFEDLCDKPYTFEDYDVSFGSGVLTVKLGGDLGTYVINKQTPNKQIWLSSPSSGPKRYDWTGKNWVYSHDGVSLHELLAAELTKALKTKLDLSSLAYSGKDA | – | 0.44 |

Reference: PMC8698469, “A Combined Spectroscopic and In Silico Approach to Evaluate the Interaction of Human Frataxin with Mitochondrial Superoxide Dismutase” (Biomedicines, 2021)
